Test results reported in the supplement of paper PMC10567573.

B1: EPB41L3 (parent)
chain: SELGDYDPDECGSDYISEFRFAPN

Variants of: B1
Assay: protein stability index of a GFP-peptide fusion (GPS, HEK-293T) (PSI 1-6); higher = more stable
Conditions: c terminus: a fixed tail appended
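Further: lentivirally expressed fusions sorted by FACS into six bins by GFP to DsRed ratio, PSI derived from sequencing read proportions per bin multiplied by bin number.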

Protein stability index of substitutions, site by site:
Y15: V 2.52, L 2.35, F 2.18, H 2.87, Q 3.05, T 2.7, W 1.97, N 4.06, C 2.84, D 4.23, E 4.13, A 2.46, G 3.75, S 3.43, P 1.84, K 2.77, R 2.74, I 2.5, M 2.91
S17: V 2.2, K 2.32, Q 2.44, M 2.11, F 1.7, I 1.94, C 2.52, A 2.33, Y 1.7, T 1.61, D 3.94, L 2.68, R 2.34, N 2.57, P 1.52, G 2.36, W 1.76, H 1.88, E 3.88
D14: N 1.99, W 1.66, L 2.41, C 1.89, R 2.51, S 1.61, Q 1.47, K 1.49, E 1.5, T 2.58, M 2.07, Y 2.11, G 1.27, F 2.43, A 1.46, I 2.32, V 1.31, P 1.63, H 1.86
G12: L 2.15, T 1.93, Y 2.32, E 2.11, C 1.55, H 2.22, K 1.9, D 3.19, S 2.15, F 1.72, P 2.12, R 1.77, I 2.16, A 2.02, Q 2.04, V 1.95, W 1.83, N 2, M 1.88
E18: W 1.99, V 2.06, R 2.11, I 2.41, K 2.5, T 1.94, A 2.1, L 2.45, D 1.83, F 2.17, H 2.37, N 2.15, P 1.66, G 2.16, S 2.15, Q 1.53, M 1.96, C 2.2, Y 1.67
I16: K 3.37, T 3.8, L 2.56, W 3.24, D 4.99, N 4.52, G 4.45, F 2.26, S 4.05, M 2.24, Y 3.47, E 4.6, P 3.7, A 4.33, C 3.41, V 2.76, H 4.14, Q 3.81, R 3.47
F19: K 4.83, D 5.28, H 4.85, I 4.67, E 5.42, P 4.97, A 4.66, C 4.68, G 4.99, M 3.91, L 3.84, Q 5.04, N 5.06
E10: Y 1.55, W 1.91
C11: W 1.68, Y 2.1, F 1.77, S 2.51, V 1.91, H 1.6, K 2.26, I 2.2, D 2.8, G 2.26, A 2.02, Q 2.49, P 1.78, E 2.7, L 2.06, M 2, T 1.94, N 2.27, R 2.01
S13: P 2.28, I 2.37, W 2.22, C 1.84, Q 2.09, F 2.11, K 1.82, H 2.1, N 2.34, E 2.59, Y 1.91, V 1.76, D 2.7, A 2.08, T 1.69, R 1.95, L 1.97, G 2.09, M 2
